Target: ILT3 on target cells (MOLM13, OCI-AML-2, NALM-1, THP-1, MM1S, H929, U226B1 and other lines) (human) (UniProt Q8NHJ6)
Experiment: cell-based or functional assay

Sequence of ILT3 on target cells (MOLM13, OCI-AML-2, NALM-1, THP-1, MM1S, H929, U226B1 and other lines) (human) (Q8NHJ6 22-448, one chain of several): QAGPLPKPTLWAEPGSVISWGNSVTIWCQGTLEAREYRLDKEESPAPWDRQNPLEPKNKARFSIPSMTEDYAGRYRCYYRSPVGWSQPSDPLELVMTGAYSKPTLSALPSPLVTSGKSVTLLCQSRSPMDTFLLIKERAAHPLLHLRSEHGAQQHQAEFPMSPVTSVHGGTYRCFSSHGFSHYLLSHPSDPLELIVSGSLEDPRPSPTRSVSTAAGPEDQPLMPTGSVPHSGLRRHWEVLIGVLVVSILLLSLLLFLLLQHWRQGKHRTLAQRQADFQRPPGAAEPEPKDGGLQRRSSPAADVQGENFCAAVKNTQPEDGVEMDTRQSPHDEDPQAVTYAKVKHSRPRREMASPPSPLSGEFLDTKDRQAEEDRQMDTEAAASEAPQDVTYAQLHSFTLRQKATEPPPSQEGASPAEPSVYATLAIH

B1: 53F10 Fab coupled with CD3 scFv 2B2 (bispecific antibody, part only; not given: CD3 scFv 2B2, V domains shown, part only)
VH: EVQVVESGGGLVKPGGSLKLSCAASGFTFSDYGMHWVRQAPEKGLEWVAYISTGIITVYYADTVKGRFTMSRDNAKNTLFLQMTSLRSEDTAIYYCARADGRGAMDYWGQGTSVIVSS
VL: DIQMTQTTSSLSASLGDRVTISCRASQDISNFLNWYQQKPDGTVTLLIYYTSRLHSGVPSRFSGSGSGTDYSLTISNLEQEDFATYFCQQGNTLPWTFGGGTKLEIK
B1 gave a TDCC, EC50 of 0.013 nM and a TNF-α, EC50 (nM), cytokine release in the TDCC co-culture of 2 nM.

B2: 53F10 Fab coupled with CD3 scFv 1G4 (bispecific antibody, part only; not given: CD3 scFv 1G4, V domains shown, part only)
VH: EVQVVESGGGLVKPGGSLKLSCAASGFTFSDYGMHWVRQAPEKGLEWVAYISTGIITVYYADTVKGRFTMSRDNAKNTLFLQMTSLRSEDTAIYYCARADGRGAMDYWGQGTSVIVSS
VL: DIQMTQTTSSLSASLGDRVTISCRASQDISNFLNWYQQKPDGTVTLLIYYTSRLHSGVPSRFSGSGSGTDYSLTISNLEQEDFATYFCQQGNTLPWTFGGGTKLEIK
For B2, the TDCC, EC50 was 2 nM.

B3: 16C5 Fab coupled with CD3 scFv 1G4 (bispecific antibody, part only; not given: CD3 scFv 1G4, V domains shown, part only)
VH: EVQLQQSGPELVKPGASVKISCKASGYTFTDYNMDWVKQSHGKSLEWIGYIYPSNGGTGYNQKFKSKATLTVDKSSNTAYMELHSLTSEDSAVYYCARVPYYDYLYYYAMDYWGQGTSVTVSS
VL: QIVLSQSPAILSASPGEKVTMACRASSSVSFMHWYQQKPGSSPQPWIYATSNLASGVPARFSGSGSGTSYSLTISRVEAEDAATYYCQQWSTNPYMYTFGGGTKLEIK
Binder B3 has a TDCC, EC50 of 50.1 nM.

B4: 16C5 Fab coupled with CD3 scFv 2B2 (bispecific antibody, part only; not given: CD3 scFv 2B2, V domains shown, part only)
VH: EVQLQQSGPELVKPGASVKISCKASGYTFTDYNMDWVKQSHGKSLEWIGYIYPSNGGTGYNQKFKSKATLTVDKSSNTAYMELHSLTSEDSAVYYCARVPYYDYLYYYAMDYWGQGTSVTVSS
VL: QIVLSQSPAILSASPGEKVTMACRASSSVSFMHWYQQKPGSSPQPWIYATSNLASGVPARFSGSGSGTSYSLTISRVEAEDAATYYCQQWSTNPYMYTFGGGTKLEIK
For B4, the TDCC, EC50 was 3.16 nM and the TNF-α, EC50 (nM), cytokine release in the TDCC co-culture was 398 nM.

B5: 12A12 Fab coupled with CD3 scFv 2B2 (bispecific antibody, part only; not given: CD3 scFv 2B2, V domains shown, part only)
VH: EVQLQQSGPELVKPGASVKISCKASGYTFTDYNMDWVKQSHGKSLEWIGYIYPNNGGTGYNQKFNSKATLTVDKSSSTAYMELHSLTSEDSAVYYCASSPYYDYVGSYAMDYWGQGTSVTVSS
VL: QIVLTQSPAIMSASLGERVTMTCTASSSVSSSYLHWYQQKPGSSPKLWIYSTSNLASGVPARFSGSGSGTSYSLTISSMEAEDAATYYCHQYHRSPRTFGGGTKLEIK
Work on B5 yielded a TDCC, EC50 of 3.16 nM and a TNF-α, EC50 (nM), cytokine release in the TDCC co-culture of 2510 nM.

B6: 12A12 Fab coupled with CD3 scFv 1G4 (bispecific antibody, part only; not given: CD3 scFv 1G4, V domains shown, part only)
VH: EVQLQQSGPELVKPGASVKISCKASGYTFTDYNMDWVKQSHGKSLEWIGYIYPNNGGTGYNQKFNSKATLTVDKSSSTAYMELHSLTSEDSAVYYCASSPYYDYVGSYAMDYWGQGTSVTVSS
VL: QIVLTQSPAIMSASLGERVTMTCTASSSVSSSYLHWYQQKPGSSPKLWIYSTSNLASGVPARFSGSGSGTSYSLTISSMEAEDAATYYCHQYHRSPRTFGGGTKLEIK
B6 showed a TDCC, EC50 of 251 nM.

B7: 3A3 Fab coupled with CD3 scFv 2B2 (bispecific antibody, part only; not given: CD3 scFv 2B2, V domains shown, part only)
VH: QVQLKESGPGLVAPSQSLSITCTVSGFSLTSYGVHWVRQPPGKGLEWLGVIWPGGTINYNSALMSRLSISKDNSKSQVFLKLNSLQTDDTAMYYCASDKYDGGWFAYWGQGTLVTVSA
VL: DIVMTQSQKFMSTSVGDRVSITCKASQNVRTAVAWYQQKPGQSPEALIYLASNRHTGVPDRFTGSGSGTDFSLSISNVQSEDLADYFCLQHLNYPLTFGSGTKLEIK
In the case of B7, the TDCC, EC50 is reported as 0.4 nM and the TNF-α, EC50 (nM), cytokine release in the TDCC co-culture is reported as 79.4 nM.

B8: 3A3 Fab coupled with CD3 scFv 1G4 (bispecific antibody, part only; not given: CD3 scFv 1G4, V domains shown, part only)
VH: QVQLKESGPGLVAPSQSLSITCTVSGFSLTSYGVHWVRQPPGKGLEWLGVIWPGGTINYNSALMSRLSISKDNSKSQVFLKLNSLQTDDTAMYYCASDKYDGGWFAYWGQGTLVTVSA
VL: DIVMTQSQKFMSTSVGDRVSITCKASQNVRTAVAWYQQKPGQSPEALIYLASNRHTGVPDRFTGSGSGTDFSLSISNVQSEDLADYFCLQHLNYPLTFGSGTKLEIK
For B8, the TDCC, EC50 was 50.1 nM.

B9: Hz45G10 Fab coupled with CD3 scFv 1G4 (bispecific antibody, part only; not given: CD3 scFv 1G4, V domains shown, part only)
VH: EVQLVESGGGLVQPGGSLRLSCAASGFTFSDYGMHWVRQAPGKGLEWVAYIFSGSSTIYYADTVKGRFTISRDNAKNSLYLQMNSLRAEDTAVYYCARADGRGAMDYWGQGTLVTVSS
VL: DIQMTQSPSSLSASVGDRVTITCRASQDISKFLNWYQQKPGKAPKLLIYYTSRLHSGVPSRFSGSGSGTDFTFTISSLQPEDIATYFCQQGNTLPWTFGGGTKLEIK
In the case of B9, the TDCC, EC50 is reported as 1.26 nM.

B10: 48A6 Fab coupled with CD3 scFv 2B2 (bispecific antibody, part only; not given: CD3 scFv 2B2, V domains shown, part only)
VH: EVQLVESGGDLMKPGGSLKLSCAASGFTFSSYGMSWVRQTPDKRLEWVATISSGGTYTFYPDSVKGRFTISRDNAKNTLYLQMSSLKSEDTAMYYCARRGWLLHYYAMDYWGQGTSVTVSS
VL: NIVLTQSPASLAVSLGQRATISCRPSESVDSFGNSFMHWFQQKPGQPPKLLIYLSSKLESGVPARFSGSGSRTDFTLTIDPVEADDAATYYCQQHNEDPFTFGSGTKLEIK
With B10 the TDCC, EC50 was 0.025 nM and the TNF-α, EC50 (nM), cytokine release in the TDCC co-culture was 2.51 nM.

B11: 48A6 Fab coupled with CD3 scFv 1G4 (bispecific antibody, part only; not given: CD3 scFv 1G4, V domains shown, part only)
VH: EVQLVESGGDLMKPGGSLKLSCAASGFTFSSYGMSWVRQTPDKRLEWVATISSGGTYTFYPDSVKGRFTISRDNAKNTLYLQMSSLKSEDTAMYYCARRGWLLHYYAMDYWGQGTSVTVSS
VL: NIVLTQSPASLAVSLGQRATISCRPSESVDSFGNSFMHWFQQKPGQPPKLLIYLSSKLESGVPARFSGSGSRTDFTLTIDPVEADDAATYYCQQHNEDPFTFGSGTKLEIK
Binder B11 has a TDCC, EC50 of 0.5 nM.
